The RNAGym collection of RNA variant scans (doi:10.7554/elife.80360)

B1: CPEB3 Ribozyme (parent)
chain: GGGGGCCACAGCAGAAGCGUUCACGUCGCGGCCCCUGUCAGAUUCUGGUGAAUCUGCGAAUUCUGCUGU

Variants of: B1
Experiment: self-cleavage, relative activity (ratio to wild type); higher = more cleavage; co-transcriptional

Variant | self-cleavage
GGGGGCCACAGCAGAAGCGUUCACGUCGCGGCCCCUUUCAGAGUCUGGUGAAUCUGCGAAUUCUGCUGU [G37U U43G] | 0.298
GGGGGCCACAGCAGAAGCGUUCACGUCGCGGCCCCUUUCAGAUUCUGGUGAAUCUGCGAAUUCUCCUGU [G37U G65C] | 0.228
GGGGGCCACAGCAGAAGCGUUCACGUCGCGGCCCCUGCCAGAUUCUGGUGAAUCUGCGAAUUCUGUUGU [U38C C66U] | 0.947
GGGGGCCACAGCAGAAGCGUUCACGUCGCGGCCCCUGACAGAUUCUGGUGAAUCUGCGAAUUCUGCUGU [U38A] | 0.929
GGGGGCCACAGCAGAAGCGUUCACGUCGCGGCCCCUGCCAGAUUCUGGUGAAUCUGCGAAUUCUGCUGU [U38C] | 0.961
GGGGGCCACAGCAGAAGCGUUCACGUCGCGGCCCCUUUCAGAUUCUGGUGAAACUGCGAAUUCUGCUGU [G37U U53A] | 0.195
GGGGGCCACAGCAGAAGCGUUCACGUCGCGGCCCCUGCCAGAUUCUGGUGAAUCUGCGAAUUGUGCUGU [U38C C63G] | 0.693
GGGGGCCACAGCAGAAGCGUUCACGUCGCGGCCCCUGCCAGAUUCUGGUGAAUCUGCGAAUUAUGCUGU [U38C C63A] | 0.71
GGGGGCCACAGCAGAAGCGUUCACGUCGCGGCCCCUGCCAGAGUCUGGUGAAUCUGCGAAUUCUGCUGU [U38C U43G] | 0.866
GGGGGCCACAGCAGAAGCGUUCACGUCGCGGCCCCUUUCAGAUUCUGGUGAAUCAGCGAAUUCUGCUGU [G37U U55A] | 0.187
GGGGGCCACAGCAGAAGCGUUCACGUCGCGGCCCCUGACAGAUUCUGGUGAAUCUGCGAAUUCUGCUGC [U38A U69C] | 1.03
GGGGGCCACAGCAGAAGCGUUCACGUCGCGGCCCCUGACAGAUUCUGGUGAAUCUGCGAAUUCUGCUGG [U38A U69G] | 0.971
GGGGGCCACAGCAGAAGCGUUCACGUCGCGGCCCCUGACAGAUUCUGGUGAAUAUGCGAAUUCUGCUGU [U38A C54A] | 0.797
GGGGGCCACAGCAGAAGCGUUCACGUCGCGGCCCCUGACAGAUUCUGGUGAAUGUGCGAAUUCUGCUGU [U38A C54G] | 0.8
GGGGGCCACAGCAGAAGCGUUCACGUCGCGGCCCCUGACAGAUUCUGGUGAAUCUGCGAAUGCUGCUGU [U38A U62G] | 0.742
GGGGGCCACAGCAGAAGCGUUCACGUCGCGGCCCCUGACAGCUUCUGGUGAAUCUGCGAAUUCUGCUGU [U38A A42C] | 0.892
GGGGGCCACAGCAGAAGCGUUCACGUCGCGGCCCCUGACAGGUUCUGGUGAAUCUGCGAAUUCUGCUGU [U38A A42G] | 0.755
GGGGGCCACAGCAGAAGCGUUCACGUCGCGGCCCCUGCCAGAUUCUGGAGAAUCUGCGAAUUCUGCUGU [U38C U49A] | 0.955
GGGGGCCACAGCAGAAGCGUUCACGUCGCGGCCCCUGCCAGAUUCUGGUGAGUCUGCGAAUUCUGCUGU [U38C A52G] | 0.909
GGGGGCCACAGCAGAAGCGUUCACGUCGCGGCCCCUGCCAGAUUCUGGUGAUUCUGCGAAUUCUGCUGU [U38C A52U] | 0.895

Variant | self-cleavage
GGGGGCCACAGCAGAAGCGUUCACGUCGCGGCCCCUGACAUAUUCUGGUGAAUCUGCGAAUUCUGCUGU [U38A G41U] | 0.795
GGGGGCCACAGCAGAAGCGUUCACGUCGCGGCCCCUGACAAAUUCUGGUGAAUCUGCGAAUUCUGCUGU [U38A G41A] | 0.718
GGGGGCCACAGCAGAAGCGUUCACGUCGCGGCCCCUGACAGAUUCUGGUGAAUCUGCGAAUUCUACUGU [U38A G65A] | 0.733
GGGGGCCACAGCAGAAGCGUUCACGUCGCGGCCCCUUUCAGAUUCUGGUGAAUCUGCGAAUUCUGCUGA [G37U U69A] | 0.358
GGGGGCCACAGCAGAAGCGUUCACGUCGCGGCCCCUUUCAGAUUCUGGUGAAUCUGCGAAUUCUGCUGG [G37U U69G] | 0.354
GGGGGCCACAGCAGAAGCGUUCACGUCGCGGCCCCUUUCAGAUUCUGGUGAAUCUGCGAAUUCGGCUGU [G37U U64G] | 0.227
GGGGGCCACAGCAGAAGCGUUCACGUCGCGGCCCCUGACAGAUUUUGGUGAAUCUGCGAAUUCUGCUGU [U38A C45U] | 0.918
GGGGGCCACAGCAGAAGCGUUCACGUCGCGGCCCCUGACAGAUUAUGGUGAAUCUGCGAAUUCUGCUGU [U38A C45A] | 0.875
GGGGGCCACAGCAGAAGCGUUCACGUCGCGGCCCCUGCCAGAUUCGGGUGAAUCUGCGAAUUCUGCUGU [U38C U46G] | 0.921
GGGGGCCACAGCAGAAGCGUUCACGUCGCGGCCCCUGCCAGAUUGUGGUGAAUCUGCGAAUUCUGCUGU [U38C C45G] | 0.92
GGGGGCCACAGCAGAAGCGUUCACGUCGCGGCCCCUGACAGAUUCUGGUGAAACUGCGAAUUCUGCUGU [U38A U53A] | 0.864
GGGGGCCACAGCAGAAGCGUUCACGUCGCGGCCCCUGACAGAUUCUGGUGAAGCUGCGAAUUCUGCUGU [U38A U53G] | 0.706
GGGGGCCACAGCAGAAGCGUUCACGUCGCGGCCCCUGACAGAAUCUGGUGAAUCUGCGAAUUCUGCUGU [U38A U43A] | 0.784
GGGGGCCACAGCAGAAGCGUUCACGUCGCGGCCCCUUUCAGAUUCUGGUGAAUCUGCGAAUCCUGCUGU [G37U U62C] | 0.299
GGGGGCCACAGCAGAAGCGUUCACGUCGCGGCCCCUGCCAGAUUCUGGUGAACCUGCGAAUUCUGCUGU [U38C U53C] | 0.763
GGGGGCCACAGCAGAAGCGUUCACGUCGCGGCCCCUGCCAGAUUCUGGUGAAACUGCGAAUUCUGCUGU [U38C U53A] | 0.883
GGGGGCCACAGCAGAAGCGUUCACGUCGCGGCCCCUGCCAGAUUCUGGUGAAGCUGCGAAUUCUGCUGU [U38C U53G] | 0.682
GGGGGCCACAGCAGAAGCGUUCACGUCGCGGCCCCUGACAGAUUCUGGUAAAUCUGCGAAUUCUGCUGU [U38A G50A] | 0.952
GGGGGCCACAGCAGAAGCGUUCACGUCGCGGCCCCUGCCAGAUUCUCGUGAAUCUGCGAAUUCUGCUGU [U38C G47C] | 0.938
